The series is described as follows: yeast display, Sf9 membrane polyspecificity reagent, FACS + sequencing; frameworks hold sequencing errors. The procedure, abridged:
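Nanobodies came from a synthetic yeast display library in Saccharomyces cerevisiae BJ5465, induced with galactose for 36–48 hours and stained for 1 hour at 4 °C with 10% biotinylated, detergent-solubilized Sf9 membrane reagent. Cells were enriched on streptavidin microbeads and then FACS-sorted, with low and high (top ~1%) gates set on anti-HA fluorescence for expression and streptavidin fluorescence for reagent binding. Each polyreactivity label reflects the gate a clone came from. Genes were amplified by colony PCR, sequenced by MiSeq 2 × 250 and filtered by CDR length.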
Turning to “QVHLVESGGGLVQAGGSLRLSCAASGRTFPYNAMGGYRQAPGKERELVAAISSGGSTTYADSVKGRFTISRDNAKNTVYLQMNSQKPEDTAVYYCATKYQRRPYRYYYWGQGTQVTVSS”, the “polyreactivity (PSR sort gate)” value is “low polyreactivity”. As for “QVHLVESGGGLVQAGGSLRLSCAASGRTFSGYAMGWYRQAPGKERELVAAITSSGSSTYYADSVKGRFTISRDNAKNTVYLQMNSLKPEDTAVYYCAATPQAHSERYYYQRKYDYWGQGTQVTVSS”, the entry is “low polyreactivity”; as for “QVHLVESGGGLVQAGGSLRLSCAASGRTFSRYAMGWYRQAPGKERELVATITRGGSTNYADSVKGRFTISRDNAKNTVYLQMNSLKPEDTAVYYCNAASFRYQGTLNHFYYWGQGTQVTVSS”, “low polyreactivity”. Regarding “QVHLVESGGGLVQAGGSLRLSCAASGRTFSRYPMGWYRQAPGKERELVAAIRGNSGNTYYAYSVKGRFTISRDNAKNTVYLQMNSLKPEDTAVYYCAKPFNIWGQGTQVTVSS”, the “polyreactivity (PSR sort gate)” value is recorded as “high polyreactivity”. As to “QVHLVESGGGLVQAGGSLRLSCAASGRTFSTYAMGWYRQAPGTERELVAAISSGGGRTYYADSVKGRFTISRDNAKNTVYLQMNRLKPEDTAVYYCAADRYFRSSRSYEYWGQGTLVTVSS”, the “polyreactivity (PSR sort gate)” value is listed as “low polyreactivity”. The entry for “QVHLVESGGGLVQAGGSLRLSCAASGRTFWLNAMGWYRQAPGKERELVATISSSSGSTTYADSVKGRFTISRDNAKNTVYLQINSLKPEDTAVYYCAVYSHKKVRPEYDYWGQGTQVTVSS” is “low polyreactivity”. Regarding “QVHLVESGGGLVQAGGSLRLSCAASGRTFYSYVMGWYRQAPGKERELVAAISSTGGTYADSVKGRFTISRDNAKNTVYLQINSLKPEETAVYYCAAATPTGYKRGGYWGQGTQVTVSS”, the “polyreactivity (PSR sort gate)” value is “low polyreactivity”.

With “QVHLVESGGGLVQAGGSLRLSCAASGRTIAAYAMGWYRQAPGKERELVAAISRSGGSTYYADSVKGRFTISRDNAKNTVYLQMNSLKPEDTAVYYCAAQRQYGKFDYWGQGTQVTVSS”, the “polyreactivity (PSR sort gate)” value is “high polyreactivity”. Consider “QVHLVESGGGLVQAGGSLRLSCAASGRTIRLNVMGWYRQAPGKERELVAAITRSVGSTYYADSVKGRFTISRDYAKNTVYLQMNSLKPEDTAVYYCNAVRSRYYDDYDYWGQGTQVTVSS”, for which the “polyreactivity (PSR sort gate)” value is “high polyreactivity”. The entry for “QVHLVESGGGLVQAGGSLRLSCAASGRTLVPNAMGWYRQAPGKERELVAAISRSGGSTYYADSLKGRFTISRDNAKNTVYLQMNSLKPEDTAVYYCAKDKRIFYRVGSDYWGQGTQVTVSS” is “low polyreactivity”; for “QVHLVESGGGLVQAGGSLRLSCAASGRTLYYYTMGWYRQAPGKERDLVAAIRWSTGSTYYADSVKGRFTISRDNAKNTVYLQMNSLKPEDTAVYYCNASRYQWAQSTEYDYWGQGTQVTVSS” it is “high polyreactivity”. Take “QVHLVESGGGLVQAGGSLRLSCAASGSICGHYAMGWYRQAPGKERELVANITLSDGRTYYADSVKGRFTISLDNAKNTVYFQMNSLKPEDTAVYYCAARYYSFSSPFDYWGQGNQVTVSS”: the “polyreactivity (PSR sort gate)” value is “high polyreactivity”.

Turning to “QVHLVESGGGLVQAGGSLRLSCAASGSIFFTYAMGWYRQAPGKETEWVAAISSGGSPYYADSVKGRFTISRDNANNTVYLQMNSLKPEDTEVYYCAARGYRLVPVDFSYWGQGTQVTVSS”, the “polyreactivity (PSR sort gate)” value is on record as “low polyreactivity”.

Take “QVHLVESGGGLVQAGGSLRLSCAASGSIFGGYGMGWYRQAPGKEREMVAAITSGSSTYYADSVKGPFTISRDNAKNSVYFQLNSLKPEDTAVYYCAARPYPHSAYEGDYWGRGTQVTVSS”: the “polyreactivity (PSR sort gate)” value was “low polyreactivity”. “QVHLVESGGGLVQAGGSLRLSCAASGSIFGYNAMGWYRQAPGKERELVAAISLTTGSTYYADSVKGRFTISRDNAKNTVYLQMNSLKPEDTAVYYCAIRGFYRGYGQAYGYWGQGTLVTVSS”: the “polyreactivity (PSR sort gate)” value is listed as “high polyreactivity”.

With “QVHLVESGGGLVQAGGSLRLSCAASGSIFHGYSMGWYRQAPGKERELVAAINSGDGSTYADSVKGRFTISRDNAKNTVYLQMNSLKPEDTAVYYCATDGTYYEHDYWGQATQVTVSS”, the “polyreactivity (PSR sort gate)” value is on record as “low polyreactivity”. As to “QVHLVESGGGLVQAGGSLRLSCAASGSIFPFNAMGWYRQAPGKERELVAAIRWSDGRTYYADSVKGRFTISRDNAKNTVYLQMNSLKPEDTAVYYCAAKSYWGQGTQVTVSS”, the “polyreactivity (PSR sort gate)” value is “high polyreactivity”. Regarding “QVHLVESGGGLVQAGGSLRLSCAASGSIFQPYAMGWYRQAPGTERELVAAISSSGGSTTYADSVKGRFTISRDKAKNTVYLQMNSLKPEDTAVYYCAAESADDMGYWGQGTQVTVSS”, the “polyreactivity (PSR sort gate)” value is on record as “low polyreactivity”. Turning to “QVHLVESGGGLVQAGGSLRLSCAASGSIFRLYSMGWYRQAPGKERELVARITTGGSTNYADSVKGRFTISRDNAKNTVYLQMNSLKPEDTAVYYCNAGVWVTAQLGLQKYSYWGQGTQVTVSS”, the “polyreactivity (PSR sort gate)” value was “high polyreactivity”. Consider “QVHLVESGGGLVQAGGSLRLSCAASGSIFSRNAMGWYRQAPGKERELVAAISRGANTYYADSVKGRFTISRDNAKNTVYLQMNSLKPEDTAVYYCNAGSRSRYEGGYWGQGTQVTVSS”, for which the “polyreactivity (PSR sort gate)” value is “high polyreactivity”.

As for “QVHLVESGGGLVQAGGSLRLSCAASGSIFTQYAMGWYRQAPGKERELVARITGSGGRTYYADSVKGRFTISRDNAKNTVYLQMNSLKPEDTAVYYCNARLYTYGRHQGPDYNYWGQGTQVTVSS”, the “polyreactivity (PSR sort gate)” value was “high polyreactivity”. Consider “QVHLVESGGGLVQAGGSLRLSCAASGSIFTRYVMGWYRQAPGKERELVAAISGRGSSTYYADSVKGRFKISRDYAKNTVYLQMNSLKPEDTAVYYCAAEIVVFYSEGQRNTFYYWGQGTQVTVSS”, for which the “polyreactivity (PSR sort gate)” value is “high polyreactivity”. Consider “QVHLVESGGGLVQAGGSLRLSCAASGSIFVPYAMGWYRQAPRKERELVAAINHGGGRTYADSVKGRFTISRDNAKNSVYLQMNSLKPDDTAVYYCAADGADKIGYYSYYYWGQGTQVTVSS”, for which the “polyreactivity (PSR sort gate)” value was “low polyreactivity”. As for “QVHLVESGGGLVQAGGSLRLSCAASGSIFYYNAMGWYRQAPGKERELVAAITSGDSTNYADSVKGRFTISRDNAKNTVYLQMNSLKPEDTAVYYCNTDGLVRNGPFYSWGQGTQVTVSS”, the entry is “low polyreactivity”; as for “QVHLVESGGGLVQAGGSLRLSCAASGSIFYYNTMGWYRQAPGKERELVAAIRFDDGSTYYADSVKGRFTISRDNAKNTVYLQMNSLKPEDTAVYYCAADWIVVSEFGLDYHMDYWGQGTQVTVSS”, “low polyreactivity”; as for “QVHLVESGGGLVQAGGSLRLSCAASGSIIKRNAMGWYRQAPGKERELVATISSGDGSTRYADSVKGRFTISRDNAKNTVYLQMNSLKPEDSAVYYCAAASAAGYDYWGQGTQVTVSS”, “low polyreactivity”. On to “QVHLVESGGGLVQAGGSLRLSCAASGSILAGYAMGWYRQAPGKEWELVAAISSGGRTYYADSVKGRFTISRDNAKNTVYLQMNSLKPEDTAVYYSAAGKYDGSRRMYYWGQGTQVTVSS”, for which the “polyreactivity (PSR sort gate)” value is given as “high polyreactivity”.

Regarding “QVHLVESGGGLVQAGGSLRLSCAASGSISVANAMGWYRQAPGKERELVAAITDSGDDTYYADSVKGRFTISRDNAKNTVYLQMNSLKPEDTAVYYCAVEAWSVPPYDYWGQGTQVTVSS”, the “polyreactivity (PSR sort gate)” value was “low polyreactivity”. For “QVHLVESGGGLVQAGGSLRLSCAASGSIYVNTMGWYRQAPGKDRELVAGISRSTGRTYYADSVKGRFTISRDNAKNTVYLQMNSLKPEDTAVYYCNTVPWRRWGYDYWGQGTQVTVSS”, the “polyreactivity (PSR sort gate)” value is “high polyreactivity”. For “QVHLVESGGGLVQAGGSLRLSCAASGSTFDTYALGWYRQAPGKEWELVAAINTGGRTKYADSVKGRFTISRDNAKNTVYLQMNSLKPVDTGVYYCAARLSTTGVAYGYWGLGTQVTVSS”, the “polyreactivity (PSR sort gate)” value is reported as “high polyreactivity”. As for “QVHLVESGGGLVQAGGSLRLSCAASGSTFEQYAMGWYIQAPGKERELVAAISGSGTRTYYADSVKGRFTISRDNAKNTVYLQMNSLKPEDTAVYSCRTGSGEYDYWGQGTQVTVSS”, the “polyreactivity (PSR sort gate)” value is recorded as “high polyreactivity”. The entry for “QVHLVESGGGLVQAGGSLRLSCAASGSTFGTYAMGWYRQAPGKERELVAAISNSGGSTYYADSVKGRFTISRDYAKNTVYLQMNSLKPEDTAVYYCNTDGLVRNGPFYSWGQGTQVTVSS” is “low polyreactivity”; for “QVHLVESGGGLVQAGGSLRLSCAASGSTFQLYAMGWYRQAPGKERELVAAITSSAGRTYYADSVKGRFTISRDNAKNTVYLQMNSLKPEDTAVYYCAKDGSFTFWGQGTQVTVSS” it is “low polyreactivity”; for “QVHLVESGGGLVQAGGSLRLSCAASGSTFRSYVMGWSRQAPGKERELVAAISRGGTTYYADSVKGRFTISRDNAKNTVYLQMNSLKPEDTPVYYCAATRTTRFYTGSKMNYWGQGTQVTVSS” it is “high polyreactivity”. Regarding “QVHLVESGGGLVQAGGSLRLSCAASGSTFTRNVMGWYRQAPGKERELVASISRSGGRTYYADSVKGRFTISRDNAKNTVYLQMNSLKPEDTAVYYCAAKSFYYLDPYDYWGQGTQVTVSS”, the “polyreactivity (PSR sort gate)” value is recorded as “high polyreactivity”. As for “QVHLVESGGGLVQAGGSLRLSCAASGSTFVNYTMGWYIQAPGKERELVAITIGAGRTYYADSVKGRFTISRDNAKNTVYLPMNSLKPEDTAVYYCAVRLYANSGRFDYWGQGTQVTVSS”, the “polyreactivity (PSR sort gate)” value is listed as “low polyreactivity”. “QVHLVESGGGLVQAGGSLRLSCAASGSTFWKYVMGWYILAPGKERELVAAITSRGGSTYADSVKGRFTISRDNAKNTVYLQMNSLKTEDTAVYYCAATKFWYYGYDYWGQGTQVTVSS”: the “polyreactivity (PSR sort gate)” value is listed as “low polyreactivity”. On to “QVHLVESGGGLVQAGGSLRLSCAASGSTFYAYTMGWYRQAPGKERELVAAISSRGGRTYYADSVKGRFTISRDNAKNTVYLQMNSLKPEDTAVYYCARTSWSGVSYDYWGQGTQVTVSS”, for which the “polyreactivity (PSR sort gate)” value is “high polyreactivity”. For the sequence “QVHLVESGGGLVQAGGSLRLSCAASGSTFYPYAMGWYRQAPGKEREVVAGISRSGGTTYYADSVKGRFTISRDNANNTVYLQMNSLKPEDTAVYYCAVQIPYVYWSYDYWGQGTQVTVSS”, the “polyreactivity (PSR sort gate)” value is recorded as “low polyreactivity”. For the sequence “QVHLVESGGGLVQAGGSLRLSCAASGSTFYYNAIGWYRQAPGKERELVARISRSGGSTYADSVKGRFTISRDKAKNTFYLQMNSLKPEDTAVYYCNADAYGTPEFTSYAVRYDYWGQGTQVTVSS”, the “polyreactivity (PSR sort gate)” value is “low polyreactivity”.

On to “QVHLVESGGGLVQAGGSLRLSCAASGSTFYYYVMGWYRQAPGKETELVAAINSGGSTYYADSVKGRFTISRDNAKNTVYLQMNSLKPEDTAVYYCAKSWSYWYQYYYSGQGTQVTVSS”, for which the “polyreactivity (PSR sort gate)” value was “low polyreactivity”.

The values above are taken from the nanobody polyreactivity screen of Harvey et al. (2022).
